# Results as given in article PMC3531742 (The Journal of Biological Chemistry, 2012).
# B1: laminin γ1 LN-LEa1–4 fragment (domain or fragment)
# chain: APLAAMDECADEGGRPQRCMPEFVNAAFNVTVVATNTCGTPPEEYCVQTGVTGVTKSCHLCDAGQQHLQHGAAFLTDYNNQADTTWWQSQTMLAGVQYPNSINLTLHLGKAFDITYVRLKFHTSRPESFAIYKRTREDGPWIPYQYYSGSCENTYSKANRGFIRTGGDEQQALCTDEFSDISPLTGGNVAFSTLEGRPSAYNFDNSPVLQEWVTATDIRVTLNRLNTFGDEVFNEPKVLKSYYYAISDFAVGGRCKCNGHASECVKNEFDKLMCNCKHNTYGVDCEKCLPFFNDRPWRRATAESASECLPCDCNGRSQECYFDPELYRSTGHGGHCTNCRDNTDGAKCERCRENFFRLGNTEACSPCHCSPVGSLSTQCDSYGRCSCKPGVMGDKCDRCQPGFHSLTEAGCRPCSCDPSGSTDECNVETGRCVCKDNVEGFNCERCKPGFFNLESSNPKGCTPAAAHHHHHH
# What was measured:
# [1] = biological target: laminin β1 LN-LEa1–4 fragment (mouse); assay: SEC-MALS
# [2] = biological target: laminin β1 LN-LEa1–4 fragment (mouse); assay: SPR
binder,measurement,setting,value
B1,stoichiometry N,[1],1
same,Kd,[2],22.3 ± 1.7 µM
